From US20180037651A1 (Janssen / Centocor, published 2018)
Substitutions are numbered along the chain they refer to. Names and notes keep the numbering of the source.

T1: cyno GPRC5D (cyno, UniProt Q9NZD1 1-343 (human entry))
T1 construct: on transfected HEK293F or Daudi cells; also called cynomolgus monkey GPRC5D
T1 chain: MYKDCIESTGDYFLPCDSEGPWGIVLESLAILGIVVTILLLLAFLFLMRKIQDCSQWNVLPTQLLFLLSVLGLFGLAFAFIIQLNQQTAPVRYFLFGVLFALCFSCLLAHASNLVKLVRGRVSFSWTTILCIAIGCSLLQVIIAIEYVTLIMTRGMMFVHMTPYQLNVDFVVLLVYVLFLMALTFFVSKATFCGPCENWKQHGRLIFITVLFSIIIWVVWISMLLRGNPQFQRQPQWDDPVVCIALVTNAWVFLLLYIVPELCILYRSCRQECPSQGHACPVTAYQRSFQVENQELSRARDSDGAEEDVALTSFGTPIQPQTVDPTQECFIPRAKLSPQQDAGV

B1: GC5B320 (antibody, IgG1, V domains shown)
VH: not shown
VL: EIVLTQSPATLSLSPGERATLSCRASQSVSSYLAWYQQKPGQAPRLLIYDASNRATGIPARFSGSGSGTDFTLTISSLEPEDFAVYYCQQRSNWPLTFGQGTKVEIK
notes: GC5H58+PH9L3 (L6); human IgG4PAA
B2: GC5B243 (antibody, IgG1, V domains shown)
VH: EVQLLESGGGLVQPGGSLRLSCAASGFTFSDYGMHWVRQAPGKGLEWVSAIKYSGGSTYYADSVKGRFTISRDNSKNTLYLQMNSLRAEDTAVYYCAKRAESGPGLDYWGQGTLVTVSS
VL: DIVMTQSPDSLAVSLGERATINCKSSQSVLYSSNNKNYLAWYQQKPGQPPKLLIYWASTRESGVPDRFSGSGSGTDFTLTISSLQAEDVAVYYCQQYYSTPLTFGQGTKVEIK
notes: human IgG4PAA
B3: GC5B504 (antibody, V domains shown)
VH: EVQLVQSGAEVKKPGESLKISCKGSGYSFTSYWIGWVRQMPGKGLEWMGIIYPGESDTRYSPSFQGQVTISADKSISTAYLQWSSLKASDTAMYYCARVYSFGGRHKALFDYWGQGTLVTVSS
VL: B1 VL
notes: GC5B164 PTM variant; also called GC5H245
B4: GC5B477 (antibody, V domains shown)
VH: B3 VH with W33V, E55S
VL: B1 VL
notes: GC5B164 PTM variant; also called GC5H272
B5: GC5B492 (antibody, V domains shown)
VH: B3 VH with W33V, E55Y
VL: B1 VL
notes: GC5B164 PTM variant; also called GC5H257
B6: GC5B498 (antibody, V domains shown)
VH: B3 VH with W33F, E55D
VL: B1 VL
notes: GC5B164 PTM variant; also called GC5H251
B7: GC5B491 (antibody, V domains shown)
VH: B3 VH with W33Y, E55Y
VL: B1 VL
notes: GC5B164 PTM variant; also called GC5H258
B8: GC5B479 (antibody, V domains shown)
VH: B3 VH with W33G, E55S
VL: B1 VL
notes: GC5B164 PTM variant; also called GC5H270
B9: GC5B486 (antibody, V domains shown)
VH: B3 VH with W33Y
VL: B1 VL
notes: GC5B164 PTM variant; also called GC5H263
B10: GC5B478 (antibody, V domains shown)
VH: B3 VH with W33F, E55S
VL: B1 VL
notes: GC5B164 PTM variant; also called GC5H271
B11: GC5B494 (antibody, V domains shown)
VH: B3 VH with W33G, E55Y
VL: B1 VL
notes: GC5B164 PTM variant; also called GC5H255
B12: GC5B505 (antibody, V domains shown)
VH: B3 VH with E55Y
VL: B1 VL
notes: GC5B164 PTM variant; also called GC5H244
B13: GC5B493 (antibody, V domains shown)
VH: B3 VH with W33F, E55Y
VL: B1 VL
notes: GC5B164 PTM variant; also called GC5H256
B14: GC5B480 (antibody, V domains shown)
VH: B3 VH with W33A, E55S
VL: B1 VL
notes: GC5B164 PTM variant; also called GC5H269
B15: GC5B503 (antibody, V domains shown)
VH: B3 VH with E55K
VL: B1 VL
notes: GC5B164 PTM variant; also called GC5H246
B16: GC5B475 (antibody, V domains shown)
VH: B3 VH with W33A, E55A
VL: B1 VL
notes: GC5B164 PTM variant; also called GC5H274
B17: GC5B474 (antibody, V domains shown)
VH: B3 VH with W33G, E55A
VL: B1 VL
notes: GC5B164 PTM variant; also called GC5H275
B18: GC5B487 (antibody, V domains shown)
VH: B3 VH with W33V
VL: B1 VL
notes: GC5B164 PTM variant; also called GC5H262
B19: GC5B483 (antibody, IgG4, V domains shown)
VH: B3 VH with W33F, E55K
VL: B1 VL
notes: GC5B164 PTM variant D55K, W33F; IgG4 S228P, L234A, L235A; also called GC5H266
B20: GC5B501 (antibody, V domains shown)
VH: B3 VH with E55A
VL: B1 VL
notes: GC5B164 PTM variant; also called GC5H248
B21: GC5B502 (antibody, V domains shown)
VH: B3 VH with E55S
VL: B1 VL
notes: GC5B164 PTM variant; also called GC5H247
B22: GC5B481 (antibody, V domains shown)
VH: B3 VH with W33Y, E55K
VL: B1 VL
notes: GC5B164 PTM variant; also called GC5H268
B23: GC5B495 (antibody, V domains shown)
VH: B3 VH with W33A, E55Y
VL: B1 VL
notes: GC5B164 PTM variant; also called GC5H254
B24: GC5B482 (antibody, V domains shown)
VH: B3 VH with W33V, E55K
VL: B1 VL
notes: GC5B164 PTM variant; also called GC5H267
B25: GC5B472 (antibody, V domains shown)
VH: B3 VH with W33V, E55A
VL: B1 VL
notes: GC5B164 PTM variant; also called GC5H277
B26: GC5B496 (antibody, V domains shown)
VH: B3 VH with W33Y, E55D
VL: B1 VL
notes: GC5B164 PTM variant; also called GC5H253
B27: GC5B473 (antibody, V domains shown)
VH: B3 VH with W33F, E55A
VL: B1 VL
notes: GC5B164 PTM variant; also called GC5H276
B28: GC5B490 (antibody, V domains shown)
VH: B3 VH with W33A
VL: B1 VL
notes: GC5B164 PTM variant; also called GC5H259
B29: GC5B485 (antibody, V domains shown)
VH: B3 VH with W33A, E55K
VL: B1 VL
notes: GC5B164 PTM variant; also called GC5H264
B30: GC5B476 (antibody, V domains shown)
VH: B3 VH with W33Y, E55S
VL: B1 VL
notes: GC5B164 PTM variant; also called GC5H273
B31: GC5B484 (antibody, V domains shown)
VH: B3 VH with W33G, E55K
VL: B1 VL
notes: GC5B164 PTM variant; also called GC5H265
B32: GC5B488 (antibody, V domains shown)
VH: B3 VH with W33F
VL: B1 VL
notes: GC5B164 PTM variant; also called GC5H261
B33: GC5B497 (antibody, V domains shown)
VH: B3 VH with W33V, E55D
VL: B1 VL
notes: GC5B164 PTM variant; also called GC5H252
B34: GC5B253 (antibody, V domains shown)
VH: QVQLVQSGAEVKKPGSSVKVSCKASGGTFSSYGISWVRQAPGQGLEWMGGIIPIFGNINYAQKFQGRVTITADESTSTAYMELSSLRSEDTAVYYCARVSRRFKRFAYYFDYWGQGTLVTVSS
VL: not shown
notes: GC5H42+PH9L4
B35: GC5B331 (antibody, V domains shown)
VH: EVQLVQSGAEVKKPGESLKISCKGSGYSFTSYWIGWVRQMPGKGLEWMGIIYPGDSDTRYSPSFQGQVTISADKSISTAYLQWSSLKASDTAMYYCARIGFYGRSFRIFDYWGQGTLVTVSS
VL: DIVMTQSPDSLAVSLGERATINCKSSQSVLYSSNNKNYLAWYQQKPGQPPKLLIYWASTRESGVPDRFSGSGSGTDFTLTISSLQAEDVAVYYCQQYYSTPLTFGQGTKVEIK
notes: GC5H35+PH9L2
B36: GC5B333 (printed with GC5H35) (antibody, V domains shown)
VH: B35 VH
VL: not shown
notes: GC5H35+PH9L4
B37: GC5B80 (antibody, V domains shown)
VH: not shown
VL: B1 VL
notes: GC5H40+PH9L3
B38: GC5B320 (printed with GC5H92) (antibody, V domains shown)
VH: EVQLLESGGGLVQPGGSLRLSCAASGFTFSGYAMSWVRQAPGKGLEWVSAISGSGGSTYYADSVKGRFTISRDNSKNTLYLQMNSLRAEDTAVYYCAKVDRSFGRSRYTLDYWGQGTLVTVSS
VL: B1 VL
B39: GC5B284 (antibody, V domains shown)
VH: not shown
VL: B1 VL
notes: GC5H14+PH9L3
B40: GC5B332 (printed with GC5H89) (antibody, V domains shown)
VH: B35 VH
VL: B1 VL

Biological target: T1, cyno GPRC5D
Assay: FACS, cyno GPRC5D HEK293F cells

MFI [MFI]	Binder
63300	B1
67800	B2

These binders were tested against T2, human GPRC5D (human, UniProt Q9NZD1 1-345) (assay: FACS, human GPRC5D cells).
T2 construct: on transfected HEK293/RBL cells or endogenous on myeloma cells (H929, MM1R, OPM2, LP1, JIM3, patient plasma cells); also called G protein-coupled receptor class C group 5 member D; hGPRC5D
T2 sequence (Q9NZD1 whole entry): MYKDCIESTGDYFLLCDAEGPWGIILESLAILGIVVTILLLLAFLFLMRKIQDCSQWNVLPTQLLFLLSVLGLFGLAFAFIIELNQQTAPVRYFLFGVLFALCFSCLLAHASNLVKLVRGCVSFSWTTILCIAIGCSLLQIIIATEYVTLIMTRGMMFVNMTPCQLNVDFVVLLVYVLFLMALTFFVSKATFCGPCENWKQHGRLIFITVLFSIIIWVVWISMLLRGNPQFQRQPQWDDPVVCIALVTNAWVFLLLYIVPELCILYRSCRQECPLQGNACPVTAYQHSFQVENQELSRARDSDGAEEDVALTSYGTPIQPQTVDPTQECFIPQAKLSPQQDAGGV

MFI [mfi]	Binder
> 10000	B3
1000 to 10000	B4
> 10000	B5
> 10000	B6
> 10000	B7
1000 to 10000	B8
> 10000	B9
> 10000	B10
1000 to 10000	B11
> 10000	B12
> 10000	B13
1000 to 10000	B14
> 10000	B15
1000 to 10000	B16
1000 to 10000	B17
1000 to 10000	B18

MFI [mfi]	Binder
> 10000	B19
> 10000	B20
> 10000	B21
> 10000	B22
1000 to 10000	B23
> 10000	B24
1000 to 10000	B25
> 10000	B26
> 10000	B27
1000 to 10000	B28
1000 to 10000	B29
> 10000	B30
1000 to 10000	B31
> 10000	B32
> 10000	B33

Biological target: T1, cyno GPRC5D
Assay: FACS, cyno GPRC5D cells, 1 ug/ml
Experimental: Whole cell phage panning was completed using the human GPRC5D cells as antigen, as described above. […] These mAbs were initially evaluated for binding to cyno GPRC5D using FACS. […] Briefly, FACS screening was performed by normalizing protein concentration to 1 ug/ml and 100 ul of protein was mixed with 200,000 cells per well. The mAb was allowed to incubate with cells for 1 hour at 4° C. The cells were then washed three times with PBS and 0.2% FBS. […] The cells and secondary antibody were incubated for 1 hour at 4° C. The cells were then washed three times with PBS and 0.2% FBS. The cells were washed again using PBS and 0.2% FBS and then analyzed on FACSarry.

MFI [MFI]	Binder
574	B34
552	B35
1590	B36
428	B37
297	B38
49600	B1
249	B39
299	B40
117000	B2

Each binder was assayed against T2, human GPRC5D (assay: FACS, human GPRC5D HEK293F cells).

MFI [MFI]	Binder
22900	B1
20500	B2
